Reference: patent US20200010567A1 (NEURIMMUNE, published 2020)

Columns and labels:
[1] = target: T1, (GA)15: H-CHHHHHH(GA)15-OH; test: indirect ELISA, uncoupled peptide coated, antibody titrated [also D00012 FIG. 3C]
T1 construct: synthetic, not coupled to BSA; also called poly-GA DPR protein peptide
T1 peptide: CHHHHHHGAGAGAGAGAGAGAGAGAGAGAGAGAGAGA
Description: (§1) In brief, dipeptide repeat proteins were synthesized and purified by Schafer-N(Copenhagen, Denmark): (GA)₁₅: H-CHHHHHH(GA)₁₅-OH; (GP)₁₅: H-C(GP)₁₅-OH; (GR)₁₅: H-C(GR)₁₅-OH; (PA)₁₅: H-C(PA)₁₅-OH; (PR)₁₅: H—C(PR)₁₅-OH. DPR protein peptides were then conjugated via a bifunctional linker (SMCC) to bovine serum albumin (BSA). 96-well microplates (Corning Incorporated, Corning, USA) were coated with BSA-coupled or -uncoupled dipeptide repeat protein peptides at a concentration of either 5 μg/ml or 20 μg/ml in coating buffer (15 mM Na₂CO₃, 35 mM NaHCO₃, pH 9.42). Non-specific binding sites were blocked for 1 h at room temperature with PBS/0.1% Tween®-20 containing 2% BSA (Sigma-Aldrich, Buchs, Switzerland). Primary antibodies were diluted to the indicated concentrations and incubated 1 h at room temperature, followed by incubation with a donkey anti-human IgG Fcγ-specific antibody conjugated with HRP (Jackson ImmunoResearch Laboratories, Inc., West Grove, USA). Binding was determined by measurement of HRP activity in a standard colorimetric assay. EC₅₀ values were estimated by non-linear regression using GraphPad Prism software (San Diego, USA).

GA5: H-(GA)5HHHHHH-NH2 [2] = target: T2, GA5: H-(GA)5HHHHHH-NH2; test: indirect ELISA, His-tagged peptide coated at 50 ug/ml, antibody titrated [also D00025 FIG. 7G]
T2 peptide: H-GAGAGAGAGAHHHHHH-NH2
Excerpt: (§2) In brief, dipeptide repeat proteins were synthesized and purified by Schafer-N (Copenhagen, Denmark): GA₂₀: H-(GA)₂₀HHHHHH-NH₂; GA₁₀: H-(GA)₁₀HHHHHH-NH₂; GA₆: H-(GA)₆HHHHHH-NH₂; GA₅: H-(GA)₅HHHHHH-NH₂; GA₄: H-(GA)₄HHHHHH-NH₂; GA₃: H-(GA)₃HHHHHH-NH₂; GA₂: H-(GA)₂HHHHHH-NH₂; GP₂₀: H-(GP)₂₀HHHHHH-NH₂; GP₁₀: H-(GP)₁₀HHHHHH-NH₂; GP₆: H-(GP)₆HHHHHH-NH₂; GP₅: H-(GP)₅HHHHHH-NH₂; GP₄: H-(GP)₄HHHHHH-NH₂; GP₃: H-(GP)₃HHHHHH-NH₂; GP₂: H-(GP)₂HHHHHH-NH₂. GR₂₀: H-(GR)₂₀HHHHHH-NH₂; GR₁₀: H-(GR)₁₀HHHHHH-NH₂; GR₆: H-(GR)₆HHHHHH-NH₂; GR₅: H-(GR)₅HHHHHH-NH₂; GR₄: H-(GR)₄HHHHHH-NH₂; GR₃: H-(GR)₃HHHHHH-NH₂; GR₂: H-(GR)₂HHHHHH-NH₂; PA₂₀: H-(PA)₂₀HHHHHH-NH₂; PA₁₀: H-(PA)₁₀HHHHHH-NH₂; PA₆: H-(PA)₆HHHHHH-NH₂; PA₅: H-(PA)₅HHHHHH-NH₂; PA₄: H-(PA)₄HHHHHH-NH₂; PA₃: H-(PA)₃HHHHHH-NH₂; PA₂: H-(PA)₂HHHHHH-NH₂; PR₂₀: H-(PR)₂₀HHHHHH-NH₂; PR₁₀: H-(PR)₁₀HHHHHH-NH₂; PR₆: H-(PR)₆HHHHHH-NH₂; PR₅: H-(PR)₅HHHHHH-NH₂; PR₄: H-(PR)₄HHHHHH-NH₂; PR₃: H-(PR)₃HHHHHH-NH₂; PR₂: H-(PR)₂HHHHHH-NH₂. 96-well microplates (Corning Incorporated, Corning, USA) were coated with dipeptide repeat protein peptides at a concentration of 50 μg/ml in coating buffer (15 mM Na₂CO₃, 35 mM NaHCO₃, pH 9.42). Non-specific binding sites were blocked for 1 h at room temperature with PBS/0.1% Tween®-20 containing 2% BSA (Sigma-Aldrich, Buchs, Switzerland). Primary antibodies were diluted to the indicated concentrations and incubated 1 h at room temperature, followed by incubation with a donkey anti-human IgG Fcγ-specific antibody conjugated with HRP (Jackson ImmunoResearch Laboratories, Inc., West Grove, USA). Binding was determined by measurement of HRP activity in a standard colorimetric assay. EC₅₀ values were estimated by non-linear regression using GraphPad Prism software (San Diego, USA).

GA3: H-(GA)3HHHHHH-NH2 [3] = target: T3, GA3: H-(GA)3HHHHHH-NH2; test: as above
T3 peptide: H-GAGAGAHHHHHH-NH2
Excerpt: as §2

GA4: H-(GA)4HHHHHH-NH2 [4] = target: T4, GA4: H-(GA)4HHHHHH-NH2; test: indirect ELISA, His-tagged peptide coated at 50 ug/ml, antibody titrated [also D00026 FIG. 7K]
T4 peptide: H-GAGAGAGAHHHHHH-NH2
Description: as §1, with “96-well” for “In brief, dipeptide repeat proteins were synthesized and purified by Schafer-N(Copenhagen, Denmark): (GA)₁₅: H-CHHHHHH(GA)₁₅-OH; (GP)₁₅: H-C(GP)₁₅-OH; (GR)₁₅: H-C(GR)₁₅-OH; (PA)₁₅: H-C(PA)₁₅-OH; (PR)₁₅: H—C(PR)₁₅-OH. DPR protein peptides were then conjugated via a bifunctional linker (SMCC) to bovine serum albumin (BSA). 96-well”, “with” for “with BSA-coupled or -uncoupled”, “50” for “either 5 μg/ml or 20”
High affinity binding was detected for poly-GA DPRs harboring 10 or 20 (GA)-repeats, reflected in an EC₅₀ in the subnanomolar or low nanomolar range (FIGS. 7A, 7C-7I).

GA5: H-(GA)5HHHHHH-NH2 [5] = target: T2, GA5: H-(GA)5HHHHHH-NH2; test: indirect ELISA, His-tagged peptide coated at 50 ug/ml, antibody titrated [also D00027 FIG. 7M]
Excerpt: as §2

GA3: H-(GA)3HHHHHH-NH2 [6] = target: T3, GA3: H-(GA)3HHHHHH-NH2; test: as above
Excerpt: as §2

GA2: H-(GA)2HHHHHH-NH2 = target: T5, GA2: H-(GA)2HHHHHH-NH2; test: as above
T5 peptide: H-GAGAHHHHHH-NH2
Excerpt: as §2

GA4: H-(GA)4HHHHHH-NH2 [7] = target: T4, GA4: H-(GA)4HHHHHH-NH2; test: as above
Excerpt: as §2

B1: NI-308.15O7 (antibody, V domains shown)
VH: QVQLVESGGGVVQPGRSLRLSCAASGFTFSNHAMHWVRQAPGKGLEWVAVISYDGENTYYADSIEGRFTISRDNFKNTLFLQMYSLTADDTAMYFCARGGRRGHFTSYYLDYWGQGTLVTVSS
VL: CDIQMTQSPSSLSASVGDRVTITCRASQNIDKYLNWYQQIPGKAPKLLIYAASSLHSGVPSRFSGSGSGTDFSLTISSLQPEDFAIYYCQQSYSSFRTFGQGTKLEIK
Binder B1 has an EC50 [1] of 0.18 nM.

B2: NI-308.18F7 (antibody, V domains shown)
VH: QVQLQESGPGLVKPSETLSVTCTVSGGSINDYYWNWIRQPAGKGLEWIGRIYASGTINYNPSLQSRVTMSIDTSKNQFSLDLISVSAADTAVYYCARWGQVVGDYYYGMDVWGQGTTVTVSS
VL: EIVLTQSPLSLSVTPGEPASISCKSSQSLQHTNGYNYLDWYLLKPGQSPQLLIFLTSNRASGVPDRFSGSGSGTNFTLKISRVEAEDVGVYYCMEGIQLWTFGQGTKLEIK
notes: Recombinant complete human IgG1, kappa
B2: no binding (tested: about 4x10^5 pM (last point)) (GA5: H-(GA)5HHHHHH-NH2 [2]); no binding (tested: about 4x10^5 pM (last point)) (GA3: H-(GA)3HHHHHH-NH2 [3]).

B3: NI-308.5G2 (antibody, V domains shown)
VH: EVQLVQSGADLRNPGASVTVSCTASGYHFADNAINWLRQAPGQRLEWMGWINIYSGNTKYSQNFQGRVTFTRNTSASTAFMHLRSLRSEDTAVYFCARDPDSSGYYLPYFDYWGQGTLVTVSS
VL: DIQLTQSPDSLTLSLGERATINCKSSQSVFYNSNNKNYLAWYQQKPGQPPKLLMYWASTRESGVTDRFSGSGSGTDFTLTITNLQAEDVAVYYCQQFYSSPLTFGGGTKVEIK
notes: as for B2
B3: no binding (tested: about 4x10^5 pM (last point)) (GA4: H-(GA)4HHHHHH-NH2 [4]).

B4: NI-308.6B11 (antibody, V domains shown)
VH: EVQLVQSGAEVKRPGASVKVSCKVSGYTLTELSMHWVRQAPGKGLEWMGGFDPEDGETVYAQKFQGRVTMTEDTSTDTAYMELSSLRSEDTALYHCATYGSSWHWNEGNEGSYYFDYWGQGTLVTVSS
VL: CDIQMTQSPSSLSASVGDRVTITCQASQDISIYLNWYQQKPGKAPKLLIYDASNLETGVPSRFSGSGSGTDFTFTISGLQPEDVARYYCQQYDDLPITFGQGTRLEIK
notes: as for B2
B4: no binding (tested: about 4x10^5 pM (last point)) (GA5: H-(GA)5HHHHHH-NH2 [5]); no binding (tested: about 4x10^5 pM (last point)) (GA3: H-(GA)3HHHHHH-NH2 [6]); no binding (tested: about 4x10^5 pM (last point)) (GA2: H-(GA)2HHHHHH-NH2). B4: no binding (tested: about 4x10^5 pM (last point)) (GA4: H-(GA)4HHHHHH-NH2 [7]).
